Test results: patent publication US20080220450A1 (DANISCO US INC GENENCOR DIVISION, published 2008)

Target: HLA-DR2(15) (human)
Test: competition assay against a standard peptide on purified HLA class II

B1: B. lentus subtilisin epitope peptide, amino acids 160-174 (peptide, UniProt P29600 160-174, looked up)
peptide: SYPARYANAMAVGAT
notes: Synthetic 15-mer; also called peptide position #54
IC50: 127 nM
